Source: patent US20170037087

Molecular target: recombinant IL-8 (UniProt P10145)
Sequence (P10145 28-99): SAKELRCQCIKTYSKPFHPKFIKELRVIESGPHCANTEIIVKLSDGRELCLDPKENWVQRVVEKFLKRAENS

SpyCEP in cell-free GAS culture supernatants
IL-8 degradation (uncleaved IL-8 by ELISA): the IL-8 degrading activity of SpyCEP
